Here are results for 7 molecules from PMC5201023, “An unconventional interaction between Dis1/TOG and Mal3/EB1 in fission yeast promotes the fidelity of chromosome segregation” (Journal of Cell Science, 2016).

The chains are these.
T1: Dis1 C1–eGFP (amino acids 520–882) (Schizosaccharomyces pombe, UniProt Q09933 520-882)
T1 construct: source: bacterially expressed, purified (as the other Dis1–eGFP constructs)
T1 sequence (looked up): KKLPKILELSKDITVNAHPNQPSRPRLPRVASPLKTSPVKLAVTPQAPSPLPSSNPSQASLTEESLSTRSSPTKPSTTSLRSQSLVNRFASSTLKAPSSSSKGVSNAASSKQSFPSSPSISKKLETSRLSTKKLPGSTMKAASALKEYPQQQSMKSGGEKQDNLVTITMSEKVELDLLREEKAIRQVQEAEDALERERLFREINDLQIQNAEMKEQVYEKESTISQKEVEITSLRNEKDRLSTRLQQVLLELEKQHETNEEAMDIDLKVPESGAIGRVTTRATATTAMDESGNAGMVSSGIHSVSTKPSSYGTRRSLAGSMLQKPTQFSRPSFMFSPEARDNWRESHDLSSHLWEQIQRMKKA

T2: Dis1–HA (full-length Dis1 with a hemagglutinin tag at its C-terminus) (Schizosaccharomyces pombe, UniProt Q09933 1-882)
T2 construct: Dis1, fission yeast (S. pombe) member of the XMAP215/TOG family; cDNA optimised for E. coli codons; also called recombinant Dis1 with an HA tag; source: bacterially expressed, purified (IgG Sepharose, Precision protease); not shown: HA, C-terminal, kept
T2 sequence (looked up): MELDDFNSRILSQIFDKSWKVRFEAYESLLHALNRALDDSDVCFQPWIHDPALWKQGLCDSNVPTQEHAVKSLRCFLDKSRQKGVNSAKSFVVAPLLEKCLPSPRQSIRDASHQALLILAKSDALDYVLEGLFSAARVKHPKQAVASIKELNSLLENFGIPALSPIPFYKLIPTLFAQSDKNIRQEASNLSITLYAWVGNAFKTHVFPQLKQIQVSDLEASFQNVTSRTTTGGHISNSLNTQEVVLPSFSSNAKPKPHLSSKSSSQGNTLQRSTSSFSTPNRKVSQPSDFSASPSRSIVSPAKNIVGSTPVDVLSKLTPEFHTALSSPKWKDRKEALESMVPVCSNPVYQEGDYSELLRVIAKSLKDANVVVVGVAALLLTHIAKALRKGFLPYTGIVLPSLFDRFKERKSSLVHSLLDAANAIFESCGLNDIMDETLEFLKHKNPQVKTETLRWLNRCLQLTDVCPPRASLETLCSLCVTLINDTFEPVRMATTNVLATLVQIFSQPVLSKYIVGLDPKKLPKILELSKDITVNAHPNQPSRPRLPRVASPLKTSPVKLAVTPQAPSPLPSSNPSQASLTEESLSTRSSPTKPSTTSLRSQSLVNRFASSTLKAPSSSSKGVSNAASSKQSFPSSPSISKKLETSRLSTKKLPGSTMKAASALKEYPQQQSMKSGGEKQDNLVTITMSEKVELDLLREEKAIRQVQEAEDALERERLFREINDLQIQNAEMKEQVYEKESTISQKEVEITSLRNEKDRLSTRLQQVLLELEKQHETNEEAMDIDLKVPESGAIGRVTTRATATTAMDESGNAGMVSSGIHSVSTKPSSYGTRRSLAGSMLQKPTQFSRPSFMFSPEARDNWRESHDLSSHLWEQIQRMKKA

B1: Dis1–eGFP (full-length Dis1 with eGFP fused to its C-terminus) (natural protein, Schizosaccharomyces pombe, UniProt Q09933 1-882, looked up)
chain: T2 sequence (looked up)
B2: GST–Mal3 (GST-tagged Mal3) (natural protein, Schizosaccharomyces pombe, UniProt Q10113 1-308, looked up)
chain: MSESRQELLAWINQVTSLGLTRIEDCGKGYAMIQIFDSIYQDIPLKKVNFECNNEYQYINNWKVLQQVFLKKGIDKVVDPERLSRCKMQDNLEFVQWAKRFWDQYYPGGDYDALARRGNRGPANTRVMNSSAGATGPSRRRQVSSGSSTPSMTKSSANNNNVSSTANTAAVLRAKQAQQQITSLETQLYEVNETMFGLERERDFYFNKLREIEILVQTHLTTSPMSMENMLERIQAILYSTEDGFELPPDQPADLTTALTDHDTNNVAEEAQMTDLKDSETQRVPSAPDFVHARLQSLEVDDDENITF
notes: Mal3, the sole EB1 homologue of fission yeast; also called Mal3 FL
B3: Dis1 C2–eGFP (amino acids 690–882) (domain or fragment, Schizosaccharomyces pombe, UniProt Q09933 690-882, looked up)
chain: EKVELDLLREEKAIRQVQEAEDALERERLFREINDLQIQNAEMKEQVYEKESTISQKEVEITSLRNEKDRLSTRLQQVLLELEKQHETNEEAMDIDLKVPESGAIGRVTTRATATTAMDESGNAGMVSSGIHSVSTKPSSYGTRRSLAGSMLQKPTQFSRPSFMFSPEARDNWRESHDLSSHLWEQIQRMKKA
notes: also called Dis1-C2–eGFP (WT); source: bacterially expressed, purified (as the other Dis1–eGFP constructs)
B4: GST–Mal3 C1 (amino acids 144–308) (domain or fragment, Schizosaccharomyces pombe, UniProt Q10113 144-308, looked up)
chain: SSGSSTPSMTKSSANNNNVSSTANTAAVLRAKQAQQQITSLETQLYEVNETMFGLERERDFYFNKLREIEILVQTHLTTSPMSMENMLERIQAILYSTEDGFELPPDQPADLTTALTDHDTNNVAEEAQMTDLKDSETQRVPSAPDFVHARLQSLEVDDDENITF
notes: also called C-terminal half
B5: Mal3 C4 (amino acids 174–247; C-terminal part of the coiled-coil and the EBH domain) (domain or fragment, Schizosaccharomyces pombe, UniProt Q10113 174-247, looked up)
chain: AKQAQQQITSLETQLYEVNETMFGLERERDFYFNKLREIEILVQTHLTTSPMSMENMLERIQAILYSTEDGFEL
notes: Homodimer in both crystal structures; also called Mal3 EBH domain; source: purified (His-tag resin, TEV protease, gel filtration)
B6: Dis1 peptide (amino acids 833–852) (peptide, UniProt Q09933 833-852, looked up)
peptide: RRSLAGSMLQKPTQFSRPSF
notes: source: spotted on the peptide array membrane
B7: Mal3 (recombinant full-length, without fluorescent protein) (natural protein, Schizosaccharomyces pombe, UniProt Q10113 1-308, looked up)
chain: B2 chain
notes: Mal3, the sole EB1 homologue of fission yeast; also called unlabelled Mal3; source: bacterially expressed, purified (as in Maurer et al., 2011)

Experiment [1] concerns the target B7. As to the kind of experiment: cell-based or functional assay.
The target in experiment [2] is B1. As to the kind of experiment: pull-down; GST pulldown: 1 µM GST, GST–Mal3 or truncated GST–Mal3 on glutathione–Sepharose beads with 0.5 µM Dis1–eGFP proteins; BRB80 with 85 mM KCl, 0.01% Brij-35, 1 mM DTT; 1 h at 4°C. The conditions noted are these: both partners purified.
The target of experiment [3] is B2. As to the kind of experiment: pull-down; peptide competition: 1 µM GST–Mal3 on glutathione beads pre-incubated 30 min with Dis1 peptide (0, 0.5, 2.5, 5.0, 50, 100 µM), then 0.5 µM Dis1 C2–eGFP for 1 h. The settings on record: both partners purified.
The target of experiment [4] is B7. Briefly: TIRF microscopy on dynamic microtubules in vitro; Cy5-labelled MTs grown from immobilised GMPCPP-stabilised seeds; BRB80 with 85 mM KCl, 1 mM GTP, 10 mM β-mercaptoethanol, 0.1% Brij-35, 0.1% methylcellulose; 30±1°C; 10-20 nM Dis1–eGFP proteins with or without 20 nM-1 µM Mal3. The settings on record: both partners purified.
Experiment [5] deals with T1, Dis1 C1–eGFP (amino acids 520–882). Briefly: pull-down; GST pulldown: 1 µM GST, GST–Mal3 or truncated GST–Mal3 on glutathione–Sepharose beads with 0.5 µM Dis1–eGFP proteins; BRB80 with 85 mM KCl, 0.01% Brij-35, 1 mM DTT; 1 h at 4°C. The conditions noted are these: both partners purified.
Experiment [6] deals with B3. As to the kind of experiment: pull-down; Mal3 (amino acids 174–247) mixed with wild-type or LAPA Dis1-C2–eGFP and pulled down by GFP trap beads. The settings on record: both partners purified.
Experiment [7] concerns the target T2, Dis1–HA (full-length Dis1 with a …). As to the kind of experiment: SEC; analytical gel filtration on Superose 6 10/300; 25 mM K-HEPES pH 7.5, 200 mM KCl, 1 mM EGTA, 1 mM MgCl2; 5 µM Dis1–eGFP with 10 µM tubulin, or 5 µM Dis1–HA with 20 µM Mal3. The conditions noted are these: both partners purified. In general terms: Size exclusion chromatography separates by hydrodynamic size, large species first.

For experiment [8], the target named is B1. As to the kind of experiment: TIRF microscopy on dynamic microtubules in vitro; Cy5-labelled MTs grown from immobilised GMPCPP-stabilised seeds; BRB80 with 85 mM KCl, 1 mM GTP, 10 mM β-mercaptoethanol, 0.1% Brij-35, 0.1% methylcellulose; 30±1°C; 10-20 nM Dis1–eGFP proteins with or without 20 nM-1 µM Mal3. The settings on record: both partners purified.

Consider B1, for which the “MT catastrophe frequency with Mal3 and Dis1 together, fold over tubulin alone (Mal3 alone ∼1.9-fold, Dis1 alone no effect)” value in experiment [1] is roughly 3.8 fold.
As to B2, in experiment [2], the binding result is listed as “binds”.
For the molecule B3, the binding result in experiment [3] and in experiment [4] was “binds” throughout.
Turning to B4, the binding result in experiment [5] was “binds”.
Take B5: the binding result in experiment [6] is “binds”.
With B6, in experiment [3], the binding result is recorded as “binds”.
As for B7, the binding result in experiment [7] and in experiment [8] was “binds” each time.
